In article PMC5792450, “PRRT2 Regulates Synaptic Fusion by Directly Modulating SNARE Complex Assembly” (Cell Reports, 2018) one finds Kd data, which are given here for 1 molecule.

As usually defined, the Kd is the constant that tells how readily two partners part at equilibrium.

For this assay, the target named is T1, t-SNARE (syntaxin1a/SNAP25) (UniProt P32851 1-288; P60879 1-206).
T1 construct: syntaxin1a; SNAP25; also called t-SNARE complexes; synaptic t-SNAREs
In words: MST; t-SNARE or assembled SNARE complex titrated in solution, up to ∼150 μM t-SNARE and ∼60 μM SNARE complex; binding not saturated; soluble conditions; Syt1 tested likewise. To be noted: both partners purified.

A value given as a limit tells only on which side of the number the result lay.

T1 sequence (P32851 whole entry, chain 1 of 2): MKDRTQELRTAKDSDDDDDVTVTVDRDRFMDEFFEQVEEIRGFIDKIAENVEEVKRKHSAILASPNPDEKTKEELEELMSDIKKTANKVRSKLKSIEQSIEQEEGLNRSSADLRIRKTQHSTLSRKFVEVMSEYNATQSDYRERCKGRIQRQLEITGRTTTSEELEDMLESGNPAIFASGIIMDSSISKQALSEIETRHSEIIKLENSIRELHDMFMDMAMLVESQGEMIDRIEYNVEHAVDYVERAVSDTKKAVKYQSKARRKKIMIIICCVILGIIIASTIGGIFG
T1 sequence (P60879 whole entry, chain 2 of 2): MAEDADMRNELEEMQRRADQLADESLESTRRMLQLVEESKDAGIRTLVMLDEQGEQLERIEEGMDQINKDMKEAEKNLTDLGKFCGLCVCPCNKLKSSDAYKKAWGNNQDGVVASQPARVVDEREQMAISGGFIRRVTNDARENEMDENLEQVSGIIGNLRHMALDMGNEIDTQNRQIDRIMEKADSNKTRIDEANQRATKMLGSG

B1: proline-rich transmembrane protein 2 (PRRT2), full-length, wild type (natural protein, human, UniProt Q7Z6L0 1-340, looked up)
chain: MAASSSEISEMKGVEESPKVPGEGPGHSEAETGPPQVLAGVPDQPEAPQPGPNTTAAPVDSGPKAGLAPETTETPAGASETAQATDLSLSPGGESKANCSPEDPCQETVSKPEVSKEATADQGSRLESAAPPEPAPEPAPQPDPRPDSQPTPKPALQPELPTQEDPTPEILSESVGEKQENGAVVPLQAGDGEEGPAPEPHSPPSKKSPPANGAPPRVLQQLVEEDRMRRAHSGHPGSPRGSLSRHPSSQLAGPGVEGGEGTQKPRDYIILAILSCFCPMWPVNIVAFAYAVMSRNSLQQGDVDGAQRLGRVAKLLSIVALVGGVLIIIASCVINLGVYK
notes: PRRT2, human, full length, cloned into pGEX6p-1; In the fusion, docking and FRET assays it was reconstituted into liposomes; also called purified PRRT2; recombinant PRRT2; source: E. coli Rosetta2(DE3), purified (glutathione agarose, cleaved off the resin with PreScission Protease)
B1: the Kd is not below 50 µM.
